Consider two proteins from article PMC10415144, “Structural insights into CodY activation and DNA recognition” (Nucleic Acids Research, 2021).

Numbering of substitutions follows the chain as printed.

Data set [1] concerns the molecule itself. The data set is described as follows: mass photometry; Refeyn OneMP; 100 nM CodY, ligand-free, 20 mM Tris-HCl pH 8, 200 mM NaCl.
Data set [2] deals with the molecule itself. The data set is described as follows: mass photometry + SEC-MALS; data not shown; EfCodY quadruple mutant in solution.

B1: Enterococcus faecalis CodY (EfCodY), full length (natural protein)
chain: GAMATLLEKTRQVNELLQKNNLFDVQAELPYNKMAMILGDILESNAYIISSSGDLLGYTEKLDVNNARIKNMFKEKKFPQGYTEAVDMLKVTEANIPIDSDLTAFPFESRELYPFGLTTIVPLYGAGKRLGTIILARVEKSFNEDDLVLAEYSATVVGMQILYHQSRTIEAEVRSATAVQMAINTLSYSELKAVHAIFEALDGEEGRLTASSIADEIGITRSVIVNALRKLESAGIIESRSLGMKGTYLKVLNQQFIKELEK
notes: also called CodY from Ef
For orientation: stoichiometry N means the number of molecules, sites or subunits per partner or assembly. Take B1: the “stoichiometry N” value in data set [1] was 2.

B2: EfCodY quadruple mutant (Tyr186, Arg238, Leu240 and Tyr246 replaced with Ala) (natural protein)
chain: B1 chain with Y188A, R240A, L242A, Y248A
notes: also called EfCodY-mutant
For the protein B2, the “stoichiometry N” value in data set [2] is 2.
